Results from PMC3081598 (Journal of the American Chemical Society, 2011).

Assays:
Assay in all cases: fluorescence polarisation
[1] = target: GLhelix-4 with Trp 534 mutated to alanine (UniProt O08773)
[2] = target: GLhelix-4, redesigned RGS14 GoLoco motif peptide (UniProt O08773)
[3] = target: heterotrimeric G-protein alpha subunit Gαi1 in its inactive, GDP-complexed state (UniProt P63096 30-354)
Sequence of heterotrimeric G-protein alpha subunit Gαi1 in its inactive, GDP-complexed state (UniProt P63096 30-354) (P63096 30-354, one chain of several): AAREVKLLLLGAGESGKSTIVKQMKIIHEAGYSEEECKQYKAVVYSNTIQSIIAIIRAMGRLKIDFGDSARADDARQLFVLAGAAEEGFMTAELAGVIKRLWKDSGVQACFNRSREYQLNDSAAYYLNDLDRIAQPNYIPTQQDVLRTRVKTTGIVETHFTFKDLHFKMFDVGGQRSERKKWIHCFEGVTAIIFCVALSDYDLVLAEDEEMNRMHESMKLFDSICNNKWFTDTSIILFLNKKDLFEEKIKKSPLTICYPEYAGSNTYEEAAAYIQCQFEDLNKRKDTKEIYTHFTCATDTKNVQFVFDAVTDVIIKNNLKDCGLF

Sequence of heterotrimeric G-protein alpha subunit Gαi1 in its inactive, GDP-complexed state (from UniProt P63096 30-354) (natural protein) (P63096 30-354, one chain of several): as above

“heterotrimeric G-protein alpha subunit Gαi1 in its inactive, GDP-complexed state (from UniProt P63096 30-354) (natural protein)” showed a Kd [1] of 1400 nM and a Kd [2] of 810 nM.

DIEGLVELLNRVQSSGAHDQRGLLRKEDLVLPEFLQ [RGS14 GoLoco motif peptide (wildtype, 36 residues)] gave a Kd [3] of 95 nM.
